From article PMC12407086

What was measured:
[1] = target: recombinant human desmoglein-1 (DSG-1), purified, full-length (human) (UniProt Q02413); test: single-molecule force spectroscopy (AFM); AFM tips functionalized with DSG-1 against living S. aureus AD08
[2] = target: recombinant human desmoglein-1 (DSG-1), purified, full-length (human) (UniProt Q02413); test: single-molecule force spectroscopy (AFM); DSG-1 tips against L. lactis SdrD^(+) in the presence of 1 mM EDTA (15 min incubation)
[3] = target: recombinant human desmoglein-1 (DSG-1), purified, full-length (human) (UniProt Q02413); test: single-molecule force spectroscopy (AFM); DSG-1 tips against L. lactis SdrD^(+) after EDTA, with CaCl2 added to 10 mM (15 min incubation)
[4] = target: pPROX^∗ peptide (cysteine-bearing peptide based on the p_(PROX) sequence of DSG-1) (human); test: single-molecule force spectroscopy (AFM); AFM tips carrying pPROX^∗ by a PEG27-maleimide linker against living L. lactis SdrD^(+); pulling speed 1 μm s^−1
Chain of pPROX^∗ peptide (cysteine-bearing peptide based on the p_(PROX) sequence of DSG-1) (human) (Q02413 other isoform, or with tags, fused parts or gaps): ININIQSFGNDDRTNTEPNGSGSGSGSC

[5] = target: recombinant human desmoglein-1 (DSG-1), purified, full-length (human) (UniProt Q02413); test: dynamic force spectroscopy (AFM, SMFS); DSG-1 tips against L. lactis SdrD^(+); retraction speed 0.5, 1, 3, 5 and 10 μm s^−1; Bell-Evans fit; only adhesion forces of >1000 pN considered
[6] = target: recombinant human desmoglein-1 (DSG-1), purified, full-length (human) (UniProt Q02413); test: single-molecule force spectroscopy (AFM); AFM tips functionalized with DSG-1 against living L. lactis SdrD^(+) on a polystyrene dish; PBS, room temperature; approach and retraction 1 μm s^−1, applied force 250 pN, dwell time 0 s

Substance | rupture force (main peak) [1] [pN] | adhesion force with 1 mM EDTA [2] [pN] | adhesion force with 10 mM Ca^2+ [3] [pN] | adhesion frequency [4] [%] | rupture force [4] [pN] | koff [5] [s⁻¹] | adhesion (rupture) force [6] [pN] | binding probability [6] [%]
SdrD on the surface of Staphylococcus aureus AD08 (clinical isolate from an infected skin lesion of a patient with AD) (from UniProt Q2G0L4 36-1315) (natural protein) | 1550 | – | – | – | – | – | – | –
serine-aspartate repeat protein D (SdrD) expressed on the surface of Lactococcus lactis MG1363 (pKS80::sdrD) (from UniProt Q2G0L4 36-1315) (natural protein) | – | 2160 | 2600 | 33 | 1810 | 1.4e-07 | 2080 | 49
